Reference: US10260068B2, “Prophylactic agent and therapeutic agent for fibrodysplasia ossificans progressiva” (Sumitomo Dainippon Pharma Co., Ltd., priority 2014, dated 2019)

T1: FOP patient-derived ACVR1 (Homo sapiens, UniProt Q04771, R206H)
T1 construct: The patient cells were confirmed to be cells having a typical FOP-associated mutation in the ACVR1 gene; endogenous in cells; host or cells: mesenchymal stem cell-like cells differentiated from an FOP patient-derived iPS cell line
T1 sequence (Q04771 21-509 R206H): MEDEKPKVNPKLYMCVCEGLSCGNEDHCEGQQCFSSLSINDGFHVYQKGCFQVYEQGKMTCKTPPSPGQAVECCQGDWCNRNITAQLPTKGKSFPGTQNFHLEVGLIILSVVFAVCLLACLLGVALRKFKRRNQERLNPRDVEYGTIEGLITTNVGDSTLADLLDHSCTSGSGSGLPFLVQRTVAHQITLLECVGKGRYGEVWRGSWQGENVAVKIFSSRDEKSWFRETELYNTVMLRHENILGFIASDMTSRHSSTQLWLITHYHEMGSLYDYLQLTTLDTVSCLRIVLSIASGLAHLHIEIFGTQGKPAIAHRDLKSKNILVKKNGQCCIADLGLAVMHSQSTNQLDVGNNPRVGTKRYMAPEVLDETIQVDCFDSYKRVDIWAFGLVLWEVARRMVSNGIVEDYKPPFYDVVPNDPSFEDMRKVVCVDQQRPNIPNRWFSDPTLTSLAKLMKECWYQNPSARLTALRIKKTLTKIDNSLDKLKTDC

B1: BMP-7: Recombinant Human BMP-7 (R&D Systems); cytokine of the BMP family (protein)
chain: STGSKQRSQNRSKTPKNQEALRMANVAENSSSDQRQACKKHELYVSFRDLGWQDWIIAPEGYAAYYCEGECAFPLNSYMNATNHAIVQTLVHFINPETVPKPCCAPTQLNAISVLYFDDSSNVILKKYRNMVVRACGCH

Legend:
[1] = biological target: T1, FOP patient-derived ACVR1; assay: Luciferase reporter (BMP responsive sequence) transcription activity via ACVR1 in FOP patient derived cells; type: cell-based; conditions: ligand 1, 10, 100 ng/mL, 16 hours, significant at 10 and 100 ng/mL vs untreated group
From the text: Following the method of Yamanaka et al. (Cell, 2007, 131 (5), […]), FOP patient-derived iPS cells (hereunder also referred to as “patient-derived iPS cell line”) were established. The patient cells were confirmed to be cells having a typical FOP-associated mutation in the ACVR1 gene. The mutation is a substitution of the 206th arginine residue of the amino acid sequence of ACVR1 (the amino acid sequence listed as SEQ ID NO: 10) with a histidine residue. Next, for use as a control, an iPS cell line with the ACVR1 gene mutation repaired to the normal type (wild type) by gene repair by a BAC knockin vector (hereunder also referred to as “gene-corrected iPS cell clone” or “gene-rescued iPS cell clone”) was established.
The patient-derived iPS cell line and gene-corrected iPS cell line were cultured on the matrix of a Matrigel coated plate (trade name: Growth Factor Reduced (GFR)BD Matrigel® by Becton & Dickinson), using mTeSR1 (Stem Cell Technologies) for 2 days under feeder-free conditions. Next, using serum-free medium [F12 Nutrient Mixture (product of Gibco)/Iscove's Modified Dulbecco's Medium (IMDM) (product of Sigma-Aldrich Japan, KK.)/0.5% bovine serum albumin (BSA) (product of Sigma-Aldrich Japan, KK.)/1% Chemically Defined Lipid (CD-Lipid) (product of Gibco, trade name: Chemically Defined Lipid Concentrate)/15 μg/mL apotransferrin (product of Sigma-Aldrich Japan, KK., trade name: apo-Transferrin human)/7 μg/mL insulin (product of Wako Pure Chemical Industries, Ltd., trade name: Insulin, Human, recombinant)/0.45 mM 1-Thioglycerol (product of Sigma-Aldrich Japan, KK.)] with addition of 10 μM SB-431542 (product of Selleck Chemicals) and 1 μM CHIR99021 (product of Wako Pure Chemical Industries, Ltd.), the patient-derived iPS cell line and gene-corrected iPS cell line were further cultured for 1 week under feeder-free conditions for differentiation to neural crest cells. […]
After mixing Firefly luciferase reporter plasmid having the BMP responsive sequence in the promoter region (J. Biol. Chem., 2002, 277(7), 4883-4891) and a plasmid having a nucleic acid sequence coding for Renilla luciferase downstream from CMV promoter, as an internal standard (product of Promega Corp., trade name: phRL-CMV Vector), FuGene® HD (Promega Corp.) was used for transfection into the mesenchymal stem cell-like cells. […] Next, the luciferase activity was measured according to the protocol provided with a Dual-Glo Luciferase Assay System (product of Promega Corp.). The luminescence was detected using an EnVision Multilabel Counter (product of Perkin-Elmer). […]

SMAD1/5/8 [2] = assay: SMAD1/5/8 phosphorylation by Western blotting in FOP patient derived cells; type: cell-based, human; conditions: for amount of total SMAD1/5/8: Western blotting, 60 minutes treatment, FOP patient derived and gene-corrected clone derived cells
Description: (§1) Mesenchymal stem cell-like cells from a patient iPS cell line and a gene-corrected iPS cell clone were each prepared by the same method as Example 1. Culturing was conducted for 60 minutes with addition of 10 ng/mL and 100 ng/mL of human activin A or 100 ng/mL of human BMP-7 to the mesenchymal stem cell-like cells. The cells were then solubilized with 300 μL of a dissolving solution (70 mM Tris-HCl buffer solution, pH 6.8, 11.2% glycerol, 3% sodium dodecyl sulfate), and a cell extract was prepared. The amount of phosphorylated SMAD1/5/8 and the amount of total SMAD1/5/8 in the obtained cell extract were quantified by Western blotting. As the primary antibody for phosphorylated SMAD1/5/8 there was used rabbit anti-phosphorylated SMAD1/5/8 antibody [product of Cell Signaling Tech., trade name: Phospho-Smad1 (Ser463/465)/Smad5 (Ser463/465)/Smad8 (Ser426/428) Antibody (Rabbit)], and as the primary antibody for total SMAD1/5/8 there was used rabbit anti-total SMAD1/5/8 antibody [product of Santa Cruz Biotechnology, trade name: Smad1/5/8 Antibody (N-18)-R (Rabbit)]. The secondary antibody used was horseradish peroxidase conjugated anti-rabbit antibody (product of Cell Signaling Tech., trade name: Anti-rabbit IgG, HRP-linked Antibody). The substrate used for chemiluminescence was ECL Prime (product of GE Healthcare), and ChemiDocXRSPlus (product of Bio-Rad Laboratories, Inc.) was used for the detection.

SMAD1/5/8 [3] = assay: SMAD1/5/8 phosphorylation by Western blotting in gene-corrected clone derived cells; type: cell-based, human; conditions: 10 and 100 ng/mL activin A or 100 ng/mL BMP-7, 60 minutes
Description: as §1, with “The substrate used for chemiluminescence was ECL Prime (product of GE Healthcare), and ChemiDocXRSPlus (product of Bio-Rad Laboratories, Inc.) was used for the detection.” left out

Row | Molecule | transcription activity via ACVR1 (firefly/Renilla luciferase activity, BMP responsive sequence) [1] | phosphorylation of SMAD1/5/8 (SMAD1/5/8 [2]; FOP patient derived cells, 10 and 100 ng/mL activin A, 60 minutes) | amount of total SMAD1/5/8 (SMAD1/5/8 [2]) | phosphorylation of SMAD1/5/8 (SMAD1/5/8 [3])
1 | human activin A: Recombinant Human/Mouse/Rat Activin A (R&D Systems); homodimer of inhibin βA chains | significantly increased | induced | No significant change | no phosphorylation of SMAD1/5/8 was induced
2 | B1 | increased in a concentration-dependent manner |  | No significant change | occurred
